Measurements taken from US20130243767A1.
Ends that are not written are not given here.

Target: CD32 (FcγRII) on human plasmacytoid dendritic cells (human) (UniProt P12318)
Assay: cell-based or functional assay

CD32 (FcγRII) on human plasmacytoid dendritic cells (human), sequence (P12318 34-317): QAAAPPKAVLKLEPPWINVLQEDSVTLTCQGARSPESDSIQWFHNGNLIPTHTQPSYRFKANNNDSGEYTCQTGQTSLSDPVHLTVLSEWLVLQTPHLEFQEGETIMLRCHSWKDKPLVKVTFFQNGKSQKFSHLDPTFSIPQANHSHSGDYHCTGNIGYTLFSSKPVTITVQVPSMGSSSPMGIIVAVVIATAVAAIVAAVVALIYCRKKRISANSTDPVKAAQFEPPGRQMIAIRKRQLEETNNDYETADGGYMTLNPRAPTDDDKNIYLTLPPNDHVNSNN

B1: aCD32a peptide published by Berntzen et al, …-biotin (peptide)
peptide: ADGAWAWVWLTETAVGAAK-biotin
  IL-6 production of pDCS in PBMC after stimulation with CPG-C: 75 times
  TNFα induction in PBMC after stimulation with CPG-C: 3 times
